The results in this text go back to patent US20100048482.

For this data set, the target named is heat shock protein 90 (HSP90), endogenous, rat heart, P82995.

B1: epsilon protein kinase C (εPKC), endogenous, rat heart (protein)
chain: MVVFNGLLKIKICEAVSLKPTAWSLRHAVGPRPQTFLLDPYIALNVDDSRIGQTATKQKTNSPAWHDEFVTDVCNGRKIELAVFHDAPIGYDDFVANCTIQFEELLQNGSRHFEDWIDLEPEGKVYVIIDLSGSSGEAPKDNEERVFRERMRPRKRQGAVRRRVHQVNGHKFMATYLRQPTYCSHCRDFIWGVIGKQGYQCQVCTCVVHKRCHELIITKCAGLKKQETPDEVGSQRFSVNMPHKFGIHNYKVPTFCDHCGSLLWGLLRQGLQCKVCKMNVHRRCETNVAPNCGVDARGIAKVLADLGVTPDKITNSGQRRKKLAAGAESPQPASGNSPSEDDRSKSAPTSPCDQELKELENNIRKALSFDNRGEEHRASSSTDGQLASPGENGEVRQGQAKRLGLDEFNFIKVLGKGSFGKVMLAELKGKDEVYAVKVLKKDVILQDDDVDCTMTEKRILALARKHPYLTQLYCCFQTKDRLFFVMEYVNGGDLMFQIQRSRKFDEPRSGFYAAEVTSALMFLHQHGVIYRDLKLDNILLDAEGHSKLADFGMCKEGILNGVTTTTFCGTPDYIAPEILQELEYGPSVDWWALGVLMYEMMAGQPPFEADNEDDLFESILHDDVLYPVWLSKEAVSILKAFMTKNPHKRLGCVAAQNGEDAIKQHPFFKEIDWVLLEQKKMKPPFKPRIKTKRDVNNFDQDFTREEPILTLVDEAIVKQINQEEFKGFSYFGEDLMP
Turning to B1, the “CPK release into the effluent during reperfusion, hearts perfused with ψεHSP90 peptide (1 µM)” value was “perfusion with ψεHSP90 peptide decreased CPK release by 47%”.
